From patent publication US20100286365

Legend:
[1] = test system: GLP-1(7-37)-GG-(S)-2,6-diamino-1-(thiazolidin-2-cyano-3-yl)hexan-1-one amide
[2] = test system: GLP-1(7-37)-GG-(S)-2,6-diamino-1-(thiazolidin-3-yl)hexan-1-one amide
Sequence of GLP-1(7-37)-GG-(S)-2,6-diamino-1-(thiazolidin-3-yl)hexan-1-one amide (chain, as listed by the source): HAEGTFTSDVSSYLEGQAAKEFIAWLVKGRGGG

## Recombinant DPP-IV
[1]
  hydrolysis catalyzed by DPP-IV (mass spectrometry): the expected product ions were not observed, indicating that these two compounds are DPP-IV resistant under the test conditions
[2]
  hydrolysis catalyzed by DPP-IV (mass spectrometry): the expected product ions were not observed, indicating that these two compounds are DPP-IV resistant under the test conditions
GLP-1
Sequence of GLP-1 (chain, as listed by the source): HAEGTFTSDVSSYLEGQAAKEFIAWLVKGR
  percentage of hydrolysis catalyzed by DPP-IV (mass spectrometry): the DPP-IV catalyzed cleavage afforded the GLP-1 (9-36) product in 17% yield
